In data set [1] the test system is T1, BstNI R200C R200C (Bacillus stearothermophilus).
T1 sequence: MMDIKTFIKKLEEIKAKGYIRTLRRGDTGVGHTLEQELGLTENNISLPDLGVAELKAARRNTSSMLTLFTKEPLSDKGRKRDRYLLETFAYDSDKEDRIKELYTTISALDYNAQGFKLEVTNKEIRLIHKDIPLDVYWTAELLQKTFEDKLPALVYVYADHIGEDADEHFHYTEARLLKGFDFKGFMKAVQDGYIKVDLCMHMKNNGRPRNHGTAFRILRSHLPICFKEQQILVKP
Put plainly: cleavage_in_vitro. To be noted: 5mC at inner (second) C of CCWGG (dcm); NEB1, NEB2 and NEB4 each 100; NEB3 10; 60 C 1 h, crude lysate.

Data set [2] has as its system T2, BstNI (Bacillus stearothermophilus).
T2 sequence: T1 sequence with C200R
Put plainly: cleavage_in_vitro. To be noted: 5mC at inner (second) C of CCWGG (dcm); NEB1 and NEB4 0.1; NEB2 0.5; NEB3 2; 60 C 1 h, crude lysate.

Residue numbers refer to the chain shown, from its start.

On to “CCWGG (double strand) [dcm+ plasmid pBC4 (C5mCWGG)]”, for which the relative cleavage in vitro (fold (dcm+/dcm- cleavage)) in data set [1] was 100; in data set [2], 0.1.
